We go through 47 sequences from the NTF2 design screens of Basanta et al. (2020).

This series in a line: protease stability score; higher = more stable; yeast display proteolysis, trypsin and chymotrypsin.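 Note: relative to predicted unfolded state with 0 unfolded-like and 1 meaning tenfold more protease.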
In the case of “DEWEEWLKAILEELRRISHTGDEDEIINNADPNVKIKIGDKLIIGREEFRRIMLELSKHFGITRFEFELHDRRIVGDKIHLDGTSRFNGVDERTTLIIMKVNGRWILRSMHVE”, the protease stability score turned out to be 1.41.

“DEWEKDARDFTRILLEIFKTGDEKSITELLDPNARVEYGDKEMHGMHLMSRILLKDAKEIRVDHMRLRSIDVYNGVLHVNMEVDGTIDGRRDTYRLHVHTHKFDGRWRVENLIIR” returned a protease stability score of 1.06.

As to “DEWEKLYEIALEIFLEVFKTGNEEMFLKQADPHVRLDVGDKHYHGREHVVKFLIDELKRVKNLKVSSEHESFVGDYAHMHIDLDIDGRRVDVEIVSLKVDGKWVLREVRLH”, the protease stability score was determined as 1.34.

Sequence “DEWERLTEVMIRIFEEIVHTGDERVWEEMADPHVKVHIDGVHFHGREDLLYLLRKMGANVFDLKRSDIQGEKVYLDIQTEFNGQKRDSRFLIVKFNGRWLLESISIH” registered a protease stability score of 1.47.

In the case of “DEWHELANEIMQLLIELWLTGDEEIVLKLADPNVKVKIIVNGRTYSNHGREMFHDWHRRVDYIHEIRIKDVTFVNGVVISDTHVDGTINGVRMRTDTKMIVVVVNGKLKSAEYRVE”, the protease stability score was determined as 1.11.

Consider “DEWHEYNEKLFELWEKANKTGDERLLRLLIDPHARLHFNGKHFHGREEVARLMTELRVDRFEIKRMEIQGEKLTVEGREDVTQGDFRFESNVNIIFLKINGRWSLERQHSE”, for which the protease stability score stood at 0.944.

“DEWKEDSRRAIELELRHLQTGDEDLTEKYADPHARVHIGDKEFHGRDHYIETLRRMGIKHVEVREIREQGDFLKMDVHVNVDGRELTVHFVMRKVNGRWRIHMIEVR”: the protease stability score came to 1.11.

On to “DEWKRLALEVLRLWEEFMSTGDEKSVEELADPNVRILYDGVQLHGMDEVRRHLKELREHSHHVEIRRATVIDGRVHVDGTLDVTIEIGDKKIREEIRVKIHIIKVNGKWFVHSVEFR”, for which the protease stability score turned out to be 1.49.

For “DEWLEIAHRFVEELVRSLLTGDEDTLTKLIDPNVRLNINGQEVVGMTEVNRAWHELRIEDEHIRRIDVQGDYVRIHSQRRGEVNGVHTEFEVVIIISKFDGRWVIKSEHVH”, the protease stability score was 1.24.

On to “DEWLEMAMRIIFRYLLLLATGDEDIVNHYMDPNVKIDVNGREEHGRERALEQLEEIRRQYPGLTLTHLHIEDLKVVGNYVRVDGYVEGRIDGRRIELKTEFIILKINGRWRMHSVKEH”, for which the protease stability score amounted to 1.74.

“DEWREHMEKLADDFSHAMLTGNEESMDKFLDPHTRSIVNGVERHGREAFRIWINQIDHIRDVEFRHVDTQGNKIRSHTRFHGEVNGRRYIVEIEVILHVIDGRVKSVEIRNL” showed a protease stability score of 1.38.

“DEWTEDVREALHLIKHSIETGDPRLIEELADPNVRVLYGNKVYHGREKLSDLVTEWRTTHVDFHHVRVIGDKIDIDVIIRSEYNGRVVDLKEKIVATKINGKWILHSRNIH” gave a protease stability score of 0.531.

“DEWTHVLHEMLKLLLDAWDTGDEKVLHRMMDPNAKSEINGREFVGMHHISTWLKRERDRLGVEIHIHVRRINFQGDKLEVDSHFNVIIGDKEFHRSTRIELIIVNGRVHSLHIKID” showed a protease stability score of 0.212.

In turn, “DEYDHIAKLMVKLWLEWYLTGDEDYFNHYADPEVRSEVGDKRFHGRELFMRYIWEHHRERGVEIEIIVRRVEVQGEKAEVDGELIVRQGDKEHRLRVHIELKVVNGVLKKIRIEFR” registered a protease stability score of 0.561.

Turning to “DEYEREYKKFIDDMLHAWLTGDEDTLQELVDPNARLHFNGQELHGRDIWLRNYREHGMKVKSYHIEHREIQGEKIIIRGRLNGHVNGRNSNMDIILIIEKVDGRWVMQDIRIS”, the protease stability score is 1.98.

“DEYERIWRDLVKLILHAHKTGDEDHLKRLMDPNAKIHVGEFEMIGRTDEELWKRLLGIERFHIHRIDIRTISIFDGRLHIEVDSDGQINGKRVEHHIEITLVIIDGKLHSVSHTLK” came in with a protease stability score of 1.1.

“DEYKRDADEVIRLWAEAMETGDEKLFLELFDPDTRSIFNGVELHGRQDIEMWRNRYDHVRHVRTEVEDSHIYNGRVEDHVRLILDVEVNGQREHHSHEILVYSVKFDGRWHFTMVEIR” showed a protease stability score of 0.607.

“DEYREEARKLMHDTAKHLHTGDEDMTNHYLDPNVKIQINGQEIHGMDKFEHDSRRFKGAKNDVRFELRLIQVIGDKVRIDGELYVRIRVGDKEYSFEVKVDIVVTKVDGVWKIKEIKIE” had a protease stability score of 0.806.

As for “DEYWHHMKKSFEDLHDARHTGDERFVMEMLDPNVRFDINGVEFIGREDWRRHLQELGVDHEEIILHDYHIFNGRVELDVRTVHHIGDYELRRDEHMDLRKVNGRWHIKEIRVR”, the protease stability score turned out to be 0.209.

Regarding “DHDDEESKHWLEFYLEIVQTGDEDSHKRLADPNTRLHIDGQVMHGREFMTMWFRHLVSKFKNARVEIRLRDTRKINGRVELDVELIFRVGDKEERREVQIFADKVDGRWHIKEFVVH”, the protease stability score amounted to 2.22.

For the sequence “DHDDEMLEHFMNLWLHAVATGDEELLSNLLDPNVREIINGKTIHGREEFLKLYHELARRIDHIHIRVRWYDMQGEFLISKTEIEFRFNGVNLKFETKMIVLKINGKWILHSIRFE”, the protease stability score came to 1.26.

“DHDDERVEHFARHWVHNFLTGDWKKLTDQVDPHVRLDVNGQKFHGREAIREWLEHILREIRVHDLKFDHIHLQGDYTIIEGTQIIHYNGRTEIRKTRIEFIIVDGKFQEIRIKTL” registered a protease stability score of 1.43.

The sequence “DHDDHMREHLIELFIRWTTTGDFDELLRLVDPNARFDVNGREIHGWDVFMKMYEDTRHLLGADHAEVRNKDERFQGDKVTITIEVTIEVGDKEHREERELYVRKVDGKWTMKSLKIR” displayed a protease stability score of 0.703.

“DHDEHDADRAVKWFLEDLRTGDEQLNERQADPHVRNDFNGVEIHGREEFLKHLSKLSNELGIKHLHVRHHRVYDGRLELHIELRFDGKTITLIIIKLKVNGRWYVESMHVH” returned a protease stability score of 0.128.

In turn, “DHDEKRVREILELFLNAITTGDEETLRHLLDPNVKTDINGVELHGWKDILHHLMEMRIHVRHYETRHLNKIGEYLHLEVHVYGEHHFDGRTREDTYYVNVIILKVNGRWHLHQFSVH” displayed a protease stability score of 1.39.

Take “DHDEKVSKEVLHEFLHVLRTGNWDHLIKNIDPNARLEVDGVDIHGRENVHKFLDEFHKRMGVDHHELHDEKMTIIDGVLQIDLDTTTEFNGRRFKTTIHLFVLKINGRWTFKTLIIKHE”: the protease stability score was 2.03.

Take “DHDEKWAREVIRLLIEDIVTGDEESLSKLFDPHVRIEIGDKEHIGMEIALKLMIELWERLGVKHIHFHMSDIRVYDGRLDVDSRLHHVVNGRKHETKVRIFIRKINGRWVIESLVIH”: the protease stability score was determined as 2.25.

For “DHDEREYHHFVQILIHSMRTGDWVKLEELMDPHVLIRIGDKELHGREELYRFMLQARIELEVKDYRLYGDKVELDTLLSMLIGDKLSETDSRMKLEKVDGKWIIREIFVDPETKKRLLD”, the protease stability score is 1.64.

On to “DHDKEYADRSIELWLKSHETGDEELVMRLADPHARVYVGEYEDHGREMVMIMLRVLGVDHYSVRSWHVQGDKVSITGELQVGDKKFRSHLTVRKVNGRWLLSEVRIG”, for which the protease stability score came out at 1.16.

As to “DHDTRRHEKILSDYAHALHTGNFHMLKELMDPHVRLEIGDKEFVGREEVMRYLQHIRSYIHRLRIDHIEIQGDKIHSDVREHLHFEIGDKDHNHDTRVEQLWLKVNGRWLLQQIVVR”, the protease stability score came to 2.16.

On to “DHEDDEFDFAIELWVTIMKTGDEEFLERYVDPHARLIVGDKRFHGREVIEFMLRRIDVLDRIEVEHRQSVNGRMIIHQHLHHAIDGRRNEVRMRVVVHKVDGRWDLDELQFD”, for which the protease stability score was determined as 1.36.

As for “DHEDEHSEEMEQLIFTWLQTGDWEAFMKFLDPRVILHIGDKTVIGREKFIEFIEQFKNIRMKIHDVQVQGNKIHIDVRTDIDGREYREHIHIHIVNGRIRHIEVRHH”, the protease stability score was 1.92.

In turn, “DHEDELKMHLFEHLLEVLMTGDEHRKTRLLDPDARSHLDINGQKIDVMGWEEVTKLDRKLHEEIRFHEIHIREWELQGDKIFVVGETRIEINGVEFRTEVRIIVVVVNGRLKALFFHVH” yielded a protease stability score of 0.271.

“DHEDELMERLARLFVHALQTGDEDLLRRYADPNTLINVNGKNLHGMEEESRFWKEIRIEHTEVERIHVQGNKSTVFVRVFFRIGDKHVHEHRILRLEFVDGRLRSVELERH”: the protease stability score was 1.69.

“DHEDERETWAYHMLIHAFRTGDERIHEELLDPNVRTDVDGRTSHGWENVVKLVHHVLRLLGIDHIRLRRSDVVDGRVYMQGDIRVNGRTIETRVTIQVINGRVHSWSVRAE” had a protease stability score of 1.6.

The sequence “DHEDERSRELTQILWKAWLTGDEELFHRLHDPDVRTEFDGREYHGWERFSELLNQFKNVRIRLRDYRIQGEKSKLDTQINIGDKRTRFHIEIYIIDGRLKNMRFEIE” returned a protease stability score of 0.868.

Regarding “DHEDHLSELAEHLIHHHWLTGDEHLLERMADPHAQIIIGDKHLHGREEVSRWLIEFMHKFKNMRLQIDHRHLIDGRLHVEVTINIGDKRLKVHRHSIKINGQWHLKSIIIE”, the protease stability score turned out to be 1.09.

For “DHEDKLHEEAFRRWLHVFKTGNEDLIRRLVDPHVKLEVDGQDFHGREELLRFLIERIRNLGIKVSDVKVKHVDIQGDKLDIDVRFIVEFNGRRTEINEWLIMEKIDGRWVVQSIHIR”, the protease stability score is 1.3.

Consider “DHEDRLAEEIARFIYHYWETGDEEEISDLFDPHVRVEININGKRIEKVGREHFYHWFHYWRERFKNLKINFKRLDPVNGKVHVETRVHQGDKERRMILEFDVVNGRIRVFRMEVHEN”, for which the protease stability score was determined as 2.5.

Turning to “DHEEDLSHEFLERLVSAWRTGDEHTWNRLADPNYKLEINGRHSVGREDSLRVIKDIRDKYKGLTIDDVTIKDVRIFDGVIRAKMVLQLNFNGVNIEEEVDIVIEKVDGRWFLKFEIVK”, the protease stability score was 0.653.

Turning to “DHEEEEAERMARKIIHVLHTGDFDSWSHLADPNVRIEVGDKELHGREDLRKLFHLWDERFKNATIMVKDMRVQGNKVHLDHRLNIDGRTIHTTSEIIVINGRIHTVIIDEK”, the protease stability score was determined as 2.29.

As to “DHEEEEEHFLLEHMIEAIVTGDEDRLKELVDPHVRMDIDGVIIHGMDDIARWLKELRSIIRHFIPRDRKWQGNKIHIEGEVHGELRFDGRNQTDTFRIEIVSHKINGRWVIRSESFR”, the protease stability score worked out at 1.18.

In turn, “DHEEEEMRDRFKVLMRALLTGDFEELIRQMDPDYRLDINGRELIGREEYRKHLEKQLKHWRWKRIDVKHVETQGDKLHARINVHGDIDGRDINTETDWHLEVIDGRVRSEKISIR” returned a protease stability score of 1.58.

Sequence “DHEEEHALRIMQLLLWLDFTGDEETIHHLMDPHVRSVWIVGDKTITRHGRENVLKLFRDLGFKHVKDFRIRDVSAFDGRVDLKGRIDGQYGDKRETWDMDVELNVVDGRLKFFIIRFK” came in with a protease stability score of 1.69.

As to “DHEEEHARSIIELLLYAFTTGNEKLLRRLIDPDAKVDIDGKSLHGMEDVSRHLREMIDHWRFRHIDVRRLEVQGEWIHITGRWDGDQGDKKVERDVEVRVLVVDGRVKHRSIHFR”, the protease stability score is 1.34.

“DHEEEIALEVAEKILKLWLTGDEEIMMELFDPNTRVEINGKKVHGRENVMHILHHEWREIRLKDLRIKRHESVGNKVHLDGRVNGQINGRKHSIHVRIDIEVVDGRITNISIEHS”: the protease stability score is 1.44.

As for “DHEEEIAQKAFTDWHHALLTGDWERHEEMFDPDVREDINGVDLHGRELIVKQVRRDLQDFGIKHFEIRIRRLSFQGNKVIFDGIIIFHVDGREERFHVRVLFRKINGVWYLHSRFLH”, the protease stability score stood at 1.06.
